From patent CN115703837A (DONGGUAN PENGZHI BIOTECHNOLOGY CO LTD, dated 2023)

T1: 生长刺激表达基因2蛋白(ST2)抗原 (UniProt Q01638-2 19-328, limits assumed)
T1 construct: also called sST2; IL1RL1
T1 sequence (looked up): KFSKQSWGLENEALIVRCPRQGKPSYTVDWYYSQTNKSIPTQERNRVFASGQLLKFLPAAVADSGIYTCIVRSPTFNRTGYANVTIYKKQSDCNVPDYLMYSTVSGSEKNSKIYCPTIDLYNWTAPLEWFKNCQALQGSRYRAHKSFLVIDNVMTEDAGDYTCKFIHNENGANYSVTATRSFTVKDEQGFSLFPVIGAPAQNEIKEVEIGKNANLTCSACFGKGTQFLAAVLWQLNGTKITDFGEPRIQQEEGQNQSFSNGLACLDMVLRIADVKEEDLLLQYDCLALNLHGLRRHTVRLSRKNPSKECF


Columns and labels:
生长刺激表达基因2蛋白(ST2)抗原 [1] = biological target: T1, 生长刺激表达基因2蛋白(ST2)抗原; assay: sandwich ELISA, antibody at 7.813 ng/ml captured on goat anti-mouse IgG, ST2 antigen, HRP anti-ST2 mAb detection
生长刺激表达基因2蛋白(ST2)抗原 [2] = biological target: T1, 生长刺激表达基因2蛋白(ST2)抗原; assay: sandwich ELISA, antibody at 0.000 ng/ml (blank, no antibody), ST2 antigen, HRP anti-ST2 mAb detection
生长刺激表达基因2蛋白(ST2)抗原 [3] = biological target: T1, 生长刺激表达基因2蛋白(ST2)抗原; assay: sandwich ELISA, antibody at 1.953 ng/ml captured on goat anti-mouse IgG, ST2 antigen, HRP anti-ST2 mAb detection
生长刺激表达基因2蛋白(ST2)抗原 [4] = biological target: T1, 生长刺激表达基因2蛋白(ST2)抗原; assay: sandwich ELISA, antibody at 15.625 ng/ml captured on goat anti-mouse IgG, ST2 antigen, HRP anti-ST2 mAb detection
生长刺激表达基因2蛋白(ST2)抗原 [5] = biological target: T1, 生长刺激表达基因2蛋白(ST2)抗原; assay: sandwich ELISA, antibody at 31.250 ng/ml captured on goat anti-mouse IgG, ST2 antigen, HRP anti-ST2 mAb detection
生长刺激表达基因2蛋白(ST2)抗原 [6] = biological target: T1, 生长刺激表达基因2蛋白(ST2)抗原; assay: BLI, AMC sensor, antibody immobilised at 10 ug/ml, ST2 antigen in serial dilution
生长刺激表达基因2蛋白(ST2)抗原 [7] = biological target: T1, 生长刺激表达基因2蛋白(ST2)抗原; assay: sandwich ELISA, antibody at 3.906 ng/ml captured on goat anti-mouse IgG, ST2 antigen, HRP anti-ST2 mAb detection

OD450 (ref 630) (生长刺激表达基因2蛋白(ST2)抗原 [1]) [OD] | OD450 (ref 630) (生长刺激表达基因2蛋白(ST2)抗原 [2]) [OD] | OD450 (ref 630) (生长刺激表达基因2蛋白(ST2)抗原 [3]) [OD] | OD450 (ref 630) (生长刺激表达基因2蛋白(ST2)抗原 [4]) [OD] | OD450 (ref 630) (生长刺激表达基因2蛋白(ST2)抗原 [5]) [OD] | Kd (生长刺激表达基因2蛋白(ST2)抗原 [6]) [nM] | koff (生长刺激表达基因2蛋白(ST2)抗原 [6]) [s⁻¹] | kon (生长刺激表达基因2蛋白(ST2)抗原 [6]) [M⁻¹ s⁻¹] | OD450 (ref 630) (生长刺激表达基因2蛋白(ST2)抗原 [7]) [OD] | Molecule
0.37 | 0.046 | 0.163 | 0.665 | 1.51 | 7.3 | 0.00723 | 990000 | 0.26 | 对照 (antibody)
– | – | – | – | – | 0.761 | 0.000745 | 979000 | – | Anti-ST2 11F9 (antibody, V domains shown) VH: QIQLVQSGPELKKPGETVKLSCKASGYTFTDYSIHWVKQAPGKGLKWMGWIHTETGEPTYADDFKGRFAFSLETSASTAYFQINNLRNEDTATYFCARDDGLDYWGQGTSVTVSS VL: DVQMIQSPSSLSASLGDIVTMTCQASQDTNINLNWFQQKPGKAPELLIYDTNNLEDGVPSRFSGSRYGTDFTLTISSLEDEDMATYFCLQHSYLPLTFGAGTKLELK
